One molecule from PMC6495647, “Purification and interactions of the MucA’ and MucB proteins constituting the DNA polymerase RI” can be followed below.

The target in one series is T1, MucA' (plasmid pKM101 (expressed in E. coli …, UniProt Q79BK8 26-146)).
T1 sequence: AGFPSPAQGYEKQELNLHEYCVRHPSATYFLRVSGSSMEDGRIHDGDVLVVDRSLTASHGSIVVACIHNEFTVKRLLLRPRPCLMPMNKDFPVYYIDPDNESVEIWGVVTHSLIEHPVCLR
As to the kind of experiment: SPR; MucA' alone; SPR (BIAcore 2000, SA chip): 20 mM HEPES pH 8.0, 50 mM K-glutamate, 10 mM Mg acetate, 5% glycerol, 0.1 mM EDTA, 2 mM DTT, 0.05% Surfactant P20 (1% P20 in MucB sample); temperature not stated. Conditions: protein: recombinant; tags: none stated (pYG8506, pET-16b based); chain copies: 2; label: 5'-biotin; single strand.

In another series the target is T2, MucB (plasmid pKM101 (expressed in E. coli …, UniProt Q79BK7 1-421)).
T2 sequence: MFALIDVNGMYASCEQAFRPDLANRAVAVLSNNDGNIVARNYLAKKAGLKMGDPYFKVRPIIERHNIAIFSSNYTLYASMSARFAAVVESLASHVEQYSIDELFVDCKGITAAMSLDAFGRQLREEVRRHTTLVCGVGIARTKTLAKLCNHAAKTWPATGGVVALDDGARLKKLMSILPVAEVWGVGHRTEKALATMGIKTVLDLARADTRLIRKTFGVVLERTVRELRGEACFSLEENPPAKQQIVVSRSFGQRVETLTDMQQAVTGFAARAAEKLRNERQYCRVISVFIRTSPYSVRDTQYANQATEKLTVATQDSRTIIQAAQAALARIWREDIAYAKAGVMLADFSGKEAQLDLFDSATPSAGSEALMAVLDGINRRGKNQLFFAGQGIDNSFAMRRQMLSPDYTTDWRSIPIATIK
As to the kind of experiment: SPR; MucB 0.26 uM alone; 10 mM Mg acetate; SPR (BIAcore 2000, SA chip): 20 mM HEPES pH 8.0, 50 mM K-glutamate, 10 mM Mg acetate, 5% glycerol, 0.1 mM EDTA, 2 mM DTT, 0.05% Surfactant P20 (1% P20 in MucB sample); temperature not stated. The settings on record: protein: recombinant; tags: none stated (untagged construct pYG8512); label: 5'-biotin; single strand. For orientation: SPR reads the build-up and loss of mass on a sensor chip optically.

B1: 73-mer ssDNA oligonucleotide (ssDNA)
DNA: GCGGCGGTTGAGTAGCTCTTCTTCCAGCACGTTTTCGCCGATAATACCGGGATCGACCACGCCATCCATTACC
As to B1, the binding result with MucA' is on record as “no binding”; with MucB, “binds”.
